Source: patent US20250208146A1 (UNIVERSITY OF FLORIDA RESEARCH FOUNDATION, published 2025)

Legend:
[1] = molecular target: T1, Z Alpha-1 Antitrypsin (Z-AAT) (human, UniProt P01009 25-418); assay: BLI (Octet): antibody from hybridoma supernatant loaded on the biosensor at 15ug/mL, ZAAT 500nM in HEPES buffer, association 300.81 s, dissociation 800.02 s, one concentration; column head kdis(1/s); Full R^2 0.7794
T1 construct: In the assays the protein was Z-AAT purified from plasma of Pi*ZZ patients, or Z-AAT in Z/Z plasma; also called Z-variant of alpha-1 antitrypsin; Z-AAT protein variant
T1 sequence (P01009 25-418 E366K limits assumed): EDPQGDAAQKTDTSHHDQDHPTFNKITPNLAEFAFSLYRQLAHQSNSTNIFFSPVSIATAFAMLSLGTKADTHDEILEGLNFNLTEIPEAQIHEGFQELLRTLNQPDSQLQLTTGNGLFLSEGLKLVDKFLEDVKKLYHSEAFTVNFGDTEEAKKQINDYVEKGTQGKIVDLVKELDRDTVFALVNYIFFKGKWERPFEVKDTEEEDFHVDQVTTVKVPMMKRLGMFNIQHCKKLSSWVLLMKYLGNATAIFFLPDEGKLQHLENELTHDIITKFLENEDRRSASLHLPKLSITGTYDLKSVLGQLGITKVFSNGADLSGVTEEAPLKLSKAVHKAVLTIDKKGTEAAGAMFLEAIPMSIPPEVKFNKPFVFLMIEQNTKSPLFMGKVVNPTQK

[2] = molecular target: T1, Z Alpha-1 Antitrypsin (Z-AAT); assay: BLI (Octet): antibody from hybridoma supernatant loaded on the biosensor at 15ug/mL, ZAAT 500nM in HEPES buffer, association 300.81 s, dissociation 800.02 s, one concentration; Full R^2 0.7794

koff [1]: 0.00125 s⁻¹
Kd [2]: 37.6 nM
kon [2]: 33200 M⁻¹ s⁻¹
B1: HL2440 (antibody, V domains shown)
VH: QVQLQQPGAELVKPGASVKMSCKASGYTFTSYWITWVKQRPGQGLEWIGDIYPGSGSTNYNEKFKNKATLTVDTSSSTAYMQLSSLTSEDSAVYYCAAAVKGFAYWGQGTLVTVSA
VL: DIVMTQSHKFMSTSVGDRVSITCKASQDVGTAVAWYQQKPGQSPKLLIYWASTRHTGVPDRFTGSGSGTDFTLTISNVQSEDLADYFCQQYSTYPLTFGSGTKLEIK
notes: Mouse monoclonal from a hybridoma, used as supernatant or purified; also called Z-specific antibody HL2440; ZAAT mAb
